The target of assay [1] is T1, human VEGF-A (human, UniProt P15692-4 27-191, limits assumed).
T1 construct: Sources differ between assays (Dr. Brekken; R&D Systems); also called VEGF-biotin (biotinylated form in the receptor ELISA)
In words: SPR (Biacore T100); IgG over 100 RU human VEGF-A on a CM5 chip; 1:1 fit; 37°C. As to the method: (§1) The background signal from a flow cell coated with BSA was subtracted from the binding curves. The binding affinity expressed as the KD was calculated by the 1:1 Fitting model using software belonging to the Biacore T100 machine.

Assay [2] addresses T1, human VEGF-A. In words: SPR (Biacore 3000); IgG over immobilized VEGF-A; 1:1 binding model; initial study; initial study; Biacore 3000; IgG over immobilized VEGF-A.
Assay [3] concerns the target T1, human VEGF-A. In words: SPR (Biacore T100); IgG over 100 RU human VEGF-A on a CM5 chip. On the procedure:
as §1

Assay [4] concerns the target T1, human VEGF-A. The assay is described as follows: SPR (Biacore T100); IgG over 100 RU human VEGF-A on a CM5 chip; 1:1 fit; 25°C. On the procedure: as §1

T1 sequence (P15692 other isoform, or with tags, fused parts or gaps limits assumed): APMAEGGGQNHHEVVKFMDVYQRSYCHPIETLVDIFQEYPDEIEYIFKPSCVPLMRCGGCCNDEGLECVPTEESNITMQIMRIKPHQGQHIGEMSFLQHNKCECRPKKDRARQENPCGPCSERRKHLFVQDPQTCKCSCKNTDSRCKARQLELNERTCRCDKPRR

B1: r84/PGN311 full length fully human IgG (antibody, V domains shown)
VH: QVQLVQSGAEVKKPGASVKVSCKASGGTFSSYAISWVRQAPGQGLEWMGGFDPEDGETIYAQKFQGRVTMTEDTSTDTAYMELSSLRSEDTAVYYCATGRSMVRGVIIPFNGMDVWGQGTTVTVSS
VL: not shown
notes: Human IgG1/kappa (Lonza pCon IgG1a and kappa vectors, CHO K1SV cells); also called r84 IgG; r84/PGN311 IgG
Turning to B1, the figures for the Kd in assay [1], in assay [2] and in assay [4] were 5.22 nM, 6.7 nM and 3.21 nM, respectively. For the same molecule, the “fold reduction of KD, 25°C versus 37°C” value in assay [3] was under 2 fold.
